The text below walks through data of US20240083996A1, “COMPOSITION FOR PROPHYLAXIS OR TREATMENT OF IL-8 RELATED DISEASES” (Chugai Seiyaku Kabushiki Kaisha, priority 2016, published 2024).

The subject of test [1] is endometriosis nodular lesions and adhesion. The format is in vivo, cynomolgus monkeys. The source says:
Female cynomolgus monkeys of 8 to 14 years of age with regular sexual cycle (provided by the Tsukuba Primate Research Center at the National Institutes of Biomedical Innovation, Health and Nutrition) were laparotomized under anesthesia during the period corresponding to the luteal phase. The uterine corpus was removed by dissecting in a V shape. Then, the uterine corpus was cut into 5 to 10 mm cubes while leaving the smooth muscle layer of the uterus, and one and two pieces were transplanted onto the right abdominal wall and left abdominal wall (cranial and caudal sides), respectively, in such a manner that the endometrium part is in contact with the peritoneum by suturing with an absorbable suture and formed the transplant. After excision, the uterus was sutured with absorbable suture. Then, the remaining endometrial tissues were finely cut and suspended in 5 ml of 2 ng/ml Hepatocyte Growth Factor solution (R&D systems), and this was seeded in the peritoneal cavity for transplantation, followed by closure of the abdomen. Anesthesia was performed using balanced anesthesia of ketamine/xylazine (mixed at an adequate ratio of about 2:1); however, anesthesia was maintained with isoflurane depending on the maintenance period of anesthesia. The body temperature was maintained and controlled during surgery using a heating pad and the condition was monitored electrocardiographically. The antagonist Antisedan (at roughly the same amount as that of xylazine) and antibiotic cephradine were administered at the time of awakening after surgery. The pain reliever Zalban was administered for two days after surgery, and the monkeys were observed regularly every day to confirm the absence of post-surgical abnormalities. In laparoscopic observation, anesthesia and post-surgical monitoring were also performed in the same way.
Laparoscopic observation was carried out four months, nine months (3 months after administration), and 12 months (6 months after administration) following the surgical induction of endometriosis described above, and the pathological conditions of endometriosis were assessed as follows.
The abdomen was incised in the median line under anesthesia, and laparoscopic observation was performed by inserting a trocar and then introducing a laparoscope. The laparoscope was connected to a video system (KARL STORZ) and a monitor. The monitor was used for intraperitoneal observation, and the video system was used for recording. Then, the peritoneal cavity was filled with carbon dioxide gas using Intra-abdominal Insufflation Unit (OLYMPUS) to expand the abdomen, and graduated bars and forceps were inserted from the ventral portion. The size of the lesion was measured using the graduated bar or graduated forceps.
The sizes (width, height, and depth) of nodular lesions formed by suturing the endometrial tissues were measured and the volumes were calculated based on: width (mm)×height (mm)×depth (mm). The lesions and adhesion formed by seeding endometrial tissues after fine cutting were assessed for the site, area, and depth of adhesion and the size of lesion by laparoscopic observation based on modified r-AFS score modified for monkeys from the r-AFS score for clinical use. […] The item on adhesion to the vesicouterine pouch was added, because in the monkey model, the frequency of adhesion to the urinary bladder is higher than in humans. The method for assessing adhesion to the urinary bladder was the same scoring as that used for adhesion to the Douglas' pouch. • 2. Since monkey's body and organ sizes are smaller than those of humans, the criteria of lesion size scoring were altered to: <3 mm, 3-10 mm, and >10 mm.
Based on the results of laparoscopic observation four months after induction, the individuals that met the criteria were selected and grouped. The criteria for the selection are as follows: • 1. Engraftment of endometrial transplant confirmed on the laparoscopic observation four months after induction. • 2. […]

In test [2] the test system is post-surgical adhesion. The test is described as follows: Adhesion after surgery (area surrounding the incision site) in surgically-induced endometriosis monkey models. The format is in vivo, cynomolgus monkeys. The conditions noted are these: 10 mg/kg; two months before versus six months after initiation of administration, five evaluators. As for the experimental part: Specifically, adhesion to the area surrounding the incision site on the abdominal wall was compared before and after administration and evaluated by five evaluators on a three-point scale: (1) Improved, (2) Stable, and (3) Progressed. Ratings with a consensus among three or more of the five evaluators were adopted; otherwise (2) Stable was used. Evaluations were carried out on six monkeys in the vehicle group as well as seven monkeys in the antibody […]/[…]-[…] administration group. […] The monkey with “Progressed” was an individual in which the blood concentration of antibody […]/[…]-[…] had decreased due to anti-antibody production.

The subject of test [3] is soluble forms of FcγRIa and FcγRIIIa in human and cynomolgus monkey. Put plainly: Binding to various FcγRs (BIACORE T200). The conditions noted are these: 20° C., HBS-EP+ (FIG. 27). As for the experimental part:
Soluble FcγRIa and FcγRIIIa in both human and cynomolgus monkey were produced in the form of His-tagged molecules by methods known to those of ordinary skill in the art. […] Next, soluble FcγRIa or FcγRIIIa was injected with a running buffer (used as a reference solution), and was made to interact with the antibodies captured onto the sensor chip. HBS-EP+ (GE Healthcare) was used as the running buffer, and HBS-EP+ was also used to dilute the soluble FcγRIa or FcγRIIIa. […] All measurements were carried out at 20° C.

The mark [4] stands for this setting: 10 mg/kg i.v. q4w, six months of administration.
Where [5] appears, read: Table 26, proliferation lesion, per nodular lesion (animals 112, 105, 106, 121, 119, 123; sites R, L1, L2), 10 mg/kg.

B1: H1009/L395-F1974m: H1009-F1974m (SEQ ID NO:36) heavy chain, L395-kOMT light chain; the anti-IL-8 antibody of Table 29 (antibody)
heavy: QVQLVESGGGLVQPGGSLRLSCAASGFTFSDYYLSWVRQAPGKGLEWVGLIRNKDNYHTPEYSASVKGRFTISRDDSKNSLYLTMSDLKTEDTAVYYCARENHRYDVELAYWGQGTLVTVSSASTKGPSVFPLAPSSKSTSGGTAALGCLVKDYFPEPVTVSWNSGALTSGVHTFPAVLQSSGLYSLSSVVTVPSSSLGTQTYICNVNHKPSNTKVDKKVEPKSCDKTHTCPPCPAPELRRGPSVFLFPPKPKDTLMISRTPEVTCVVVDVSHEDPEVKFNWYVDGVEVHNAKTKPREEQYNSTYRVVSVLTVLHQDWLNGKEYKCKVSNKGLPSSIEKTISKAKGQPREPQVYTLPPSREEMTKNQVSLTCLVKGFYPSDIAVEWESNGQPENNYKTTPPVLDSDGSFFLYSKLTVDKSRWQQGNVFSCSVLHEALHAHTTRKELSLSP
light: DIQMTQSPSSLSASVGDRVTITCRASEIIYSYLAWYQQKPGKAPKLLIYKAKTHADGVPSRFSGSGSGTDFTFTISSLQPEDIATYYCKHHFGFPRTFGQGTKVEIKRTVAAPSVFIFPPSDEQLKSGTASVVCLLNNFYPREAKVQWKVDNALQSGNSQESVTEQDSKDSTYSLSSTLTLSKADYEKHKVYACEVTHQGLSSPVTKSFNRGEC
As for B1, in test [1] (setting [4]), the “frequency of nodular lesions of type A: proliferative, ≥500 mm3” value was determined as 0%; the “frequency of nodular lesions of type B: proliferative, <500 mm^3” value is recorded as 8%; the “frequency of nodular lesions of type C: no change” value is reported as 33%; the “frequency of nodular lesions of type D: decreased” value worked out at 58%. Moreover, in test [1] (setting [4]), the “number of nodular lesions of type A: proliferative, ≥500 mm3 / lesions analysed” value is reported as “(0/12)”; the “number of nodular lesions of type B: proliferative, <500 mm^3 / lesions analysed” value is on record as “(1/12)”; the “number of nodular lesions of type C: no change / lesions analysed” value was “(4/12)”; the “number of nodular lesions of type D: decreased / lesions analysed” value is 7/12 and (7/12). Besides, in test [1] (setting [5]), the “Atrophy/decrease, stromal cell (P)” value is recorded as “±” and the “Decreased insterstitium (P)” value is listed as “±”. Further, in test [1] (after minus before administration, versus vehicle group (FIG. 35-1)), the “change of size r-AFS score” value is given as “tended to decrease”. Also, the “change of total r-AFS score” value in test [1] (after minus before administration, versus vehicle group, p=0.0070 (FIG. 35-1)) is recorded as “clearly decreased as compared to the vehicle group”. Also, the “change of adhesion score” value in test [1] (after minus before administration, versus vehicle group, p=0.0096 (FIG. 35-1)) was “clearly decreased as compared to the vehicle group”. Besides, the “frequency of deep lesions (endometriosis gland ducts invaded up to the muscle layer of abdominal wall)” value in test [1] (anti-antibody-positive individuals excluded, vehicle group 5/18 lesions) was 1/11. In addition, the muscle tissue regeneration result in test [1] (autopsy) was “muscle tissue regeneration, which was not seen in the vehicle group, was observed”. Also, in test [1] (autopsy after final laparoscopic observation, compared to the vehicle group), the “histopathology of the grafts and grafted sites (HE staining)” value is “atrophic changes of proliferative epithelia and stromal cells as well as reduction of the interstitium whose major component is collagenous fibers was observed”. Also, the “number of lesions with hemosiderin / lesions” value in test [1] (autopsy, vehicle group 9/16) was 4/17. The “frequency of lesions with hemosiderin” value in test [1] (autopsy, vehicle group 56%) is listed as 24%. Also, the “total modified r-AFS score before and after administration” value in test [1] (scores recorded during laparoscopic surgery, Wilcoxon's signed-rank-sum test, P=0.875 (FIG. 35-2)) is “the score did not change”. In test [2], the “adhesion to the area surrounding the incision site: Improved (monkeys/group)” value is recorded as 6/7, the “adhesion to the area surrounding the incision site: Progressed (monkeys/group)” value is listed as 1/7 and the “adhesion to the area surrounding the incision site: Stable (monkeys/group)” value is on record as 0/7. In addition, the “binding to FcγRs (hFcγRIa, hFcγRIIIa, cynoFcγRIa, cynoFcγRIIIa)” value in test [3] was “not to bind to any of the FcγRs”.
